{
  "source": "patent US20050032194",
  "proteins": {"B1": {"name": "Sap (S-layer associated protease), native Caulobacter crescentus metalloprotease (protein)", "chain": "MCSQCERYGLNLHGDDVAPAVSGGEGPYAFVDADSRVGTVDGKKSLTVPEAALQLLRSEPGWSNQFLVPATVTYAFRATAPASMPSDTGGFSQFNAAQILQAEKALQAWSDVANITFVRVGQGTSGEAAYSDNASILFANFSTGSEGSAGFAYYPGNPAASSRSGDVWIKSTAGYNTNPTGSNYGGMVLVHELGHAIGIAHPSEYNASADDTLTYAVNATYYQDSRQYTVMSYFSEANTGGSFGGAYASSPLLDDIAAAQLAYGANMTTRTGDTVYGFNSTAGREWFAATSSSTRLVFAVWDAGGVDTLDFSGYRVAQTIDLRAGYFSSVGGLKGNVTIAMNAVIENAIGGSAADTINGNAVDNRLTGGAGADILDGGRGVDTAVFSGAYGNYTLTAATNGAWSVLDRVGTDATDTLANIEFLAFTDRTVTLVDSRVATAISNILRLQTFSASAEPLSKSLAASMAAGASHSDAIGQVSKTALSTSGVAVLAYQFFTGKTPTAAGMDYLVNPDGVNANNLNSAYYQSFNLENRYINFAVNLGKIGEGATKFLADYGGLSLFDATRKAYATIFGLTPTDDKVRALIDGRTDYFAAYGQDGPNGQGTKAAMVGWLMAEAGKADIGVYAKSAGAFFADQATKNVYGVDLIGVYAKPEYNLI"}},
  "key": {"[1]": {"target": "RsaA(723/3XPilin12), RsaA with a 3X tandemly repeated P. aeruginosa pilin epitope inserted at amino acid 723"}, "[2]": {"target": "RsaA(723/VP2C), RsaA with a 112 amino acid segment of the VP2 surface glycoprotein of infectious pancreatic necrosis virus inserted at amino acid 723"}, "[3]": {"target": "T1, RsaA(485/IHNVG20), full-length RsaA hybrid protein carrying the 20 amino acid IHNV-G peptide at amino acid 485", "T1 chain": "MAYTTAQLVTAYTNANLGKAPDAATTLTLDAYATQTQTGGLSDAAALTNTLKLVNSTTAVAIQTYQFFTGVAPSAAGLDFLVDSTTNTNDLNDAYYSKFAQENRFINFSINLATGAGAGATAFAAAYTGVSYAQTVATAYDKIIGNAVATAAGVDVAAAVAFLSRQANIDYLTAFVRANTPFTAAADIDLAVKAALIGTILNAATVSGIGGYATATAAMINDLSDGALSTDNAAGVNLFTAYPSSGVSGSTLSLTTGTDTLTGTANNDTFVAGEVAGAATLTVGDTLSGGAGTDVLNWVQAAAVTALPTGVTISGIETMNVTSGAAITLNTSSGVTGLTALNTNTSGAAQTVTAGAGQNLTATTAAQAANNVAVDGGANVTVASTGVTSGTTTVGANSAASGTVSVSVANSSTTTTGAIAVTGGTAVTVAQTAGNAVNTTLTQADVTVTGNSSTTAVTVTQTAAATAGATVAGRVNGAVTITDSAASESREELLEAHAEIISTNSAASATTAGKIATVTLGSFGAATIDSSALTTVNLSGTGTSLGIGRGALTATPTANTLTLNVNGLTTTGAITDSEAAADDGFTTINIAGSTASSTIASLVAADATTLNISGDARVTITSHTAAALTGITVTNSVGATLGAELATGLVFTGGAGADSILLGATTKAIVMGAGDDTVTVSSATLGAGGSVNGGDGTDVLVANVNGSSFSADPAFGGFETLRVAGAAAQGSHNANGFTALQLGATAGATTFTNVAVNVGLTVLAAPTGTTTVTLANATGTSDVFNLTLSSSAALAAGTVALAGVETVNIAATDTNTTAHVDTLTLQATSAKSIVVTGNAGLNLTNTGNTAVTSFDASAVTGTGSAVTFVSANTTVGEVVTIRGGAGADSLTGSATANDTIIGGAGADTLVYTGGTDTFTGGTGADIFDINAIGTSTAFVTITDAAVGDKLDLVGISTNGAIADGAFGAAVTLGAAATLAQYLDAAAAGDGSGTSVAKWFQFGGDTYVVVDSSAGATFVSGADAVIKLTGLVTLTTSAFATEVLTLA"}, "[4]": {"target": "T2, RsaA, wild-type S-layer protein monomer of C. crescentus", "T2 chain": "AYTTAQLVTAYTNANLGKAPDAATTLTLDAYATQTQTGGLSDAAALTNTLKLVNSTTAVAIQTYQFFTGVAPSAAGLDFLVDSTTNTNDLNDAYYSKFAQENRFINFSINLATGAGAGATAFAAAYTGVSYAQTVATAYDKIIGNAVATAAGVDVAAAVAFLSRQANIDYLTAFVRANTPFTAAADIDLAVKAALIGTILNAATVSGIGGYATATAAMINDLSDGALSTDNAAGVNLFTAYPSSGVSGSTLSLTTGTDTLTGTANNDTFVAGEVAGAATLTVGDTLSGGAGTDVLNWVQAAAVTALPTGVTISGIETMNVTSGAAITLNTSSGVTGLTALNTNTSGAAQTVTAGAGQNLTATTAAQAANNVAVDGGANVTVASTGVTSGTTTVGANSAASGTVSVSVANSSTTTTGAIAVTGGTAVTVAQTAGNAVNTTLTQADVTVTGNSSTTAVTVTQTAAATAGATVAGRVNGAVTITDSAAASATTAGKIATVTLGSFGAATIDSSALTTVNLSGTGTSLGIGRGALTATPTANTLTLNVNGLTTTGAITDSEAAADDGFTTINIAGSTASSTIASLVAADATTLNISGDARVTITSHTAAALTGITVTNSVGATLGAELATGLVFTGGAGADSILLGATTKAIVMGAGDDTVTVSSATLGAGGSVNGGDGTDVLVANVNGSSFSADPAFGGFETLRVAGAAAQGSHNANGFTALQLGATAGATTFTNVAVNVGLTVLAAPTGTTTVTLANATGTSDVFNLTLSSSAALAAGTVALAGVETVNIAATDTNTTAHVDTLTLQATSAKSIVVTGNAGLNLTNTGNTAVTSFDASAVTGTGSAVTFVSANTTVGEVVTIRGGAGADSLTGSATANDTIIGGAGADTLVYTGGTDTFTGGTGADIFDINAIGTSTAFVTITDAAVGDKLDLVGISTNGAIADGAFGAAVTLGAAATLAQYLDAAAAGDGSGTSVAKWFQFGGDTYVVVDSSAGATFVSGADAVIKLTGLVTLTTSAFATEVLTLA"}},
  "data": [
    {"protein": "B1", "values": [
      {"measurement": "degradation of the hybrid protein in Sap+ JS4000 against Sap- JS4015 (SDS-PAGE of low-pH extracts)", "setting": "[1]", "result": "In all instances significant degradation of the hybrid full-length rsaA protein occurred in a wild-type host (JS4000) while none was detected in the Sap^- JS4015 strain"},
      {"measurement": "degradation of the hybrid protein in Sap+ JS4000 against Sap- JS4015 (SDS-PAGE of low-pH extracts)", "setting": "[2]", "result": "In all instances significant degradation of the hybrid full-length rsaA protein occurred in a wild-type host (JS4000) while none was detected in the Sap^- JS4015 strain"},
      {"measurement": "proteolytic phenotype (cleavage of the hybrid protein; SDS-PAGE of low-pH extracts, complementation of Sap- JS4015 with the sap gene)", "setting": "[3]", "result": "When pBBR1MCS:Kmsap was introduced into JS4015, the proteolytic phenotype was restored"},
      {"measurement": "proteolytic cleavage (SDS-PAGE of low-pH extracts from Sap+ JS4000)", "setting": "[4]", "result": "Native RsaA (98 kDa) was not subjected to cleavage"}
    ]}
  ]
}
